According to patent US8409833B2 (Hokko Chemical Industry Co., Ltd., priority 2003, dated 2013):
Entries after “also recorded” stand apart in the source; their conditions may differ.

How the values were obtained:
Format in all cases: biochemical
[1] = Effects of heavy metal on scyllo-inositol dehydrogenase; details: 2 mM heavy metal in reaction solution; no addition group = 100%
Experimental: Effects by the heavy metals can be confirmed by: mixing 5 μl of a reaction solution (200 mM Tris buffer of pH 8.0 containing 2% of NADPH, 1% of scyllo-inosose, and 2 mM metal salt) and 5 μl of an enzyme solution; allowing the mixture to react at 36° C. for 30 minutes; adding 500 μl of water immediately after the completion of the reaction; determining the absorbance at 340 nm; and determining a decrease in the absorbance at 340 nm with respect to a blank value of a test solution containing water instead of the enzyme solution. The term “activated” means the case where the enzymatic activity of a fraction added with 1 mM of a heavy metal is 105% or more, preferably 120% or more, with respect to the enzymatic activity of a fraction added with no heavy metal as 100%. On the other hand, the term “inhibited” means the case where the enzymatic activity of the fraction added with 1 mM of a heavy metal is 95% or less, preferably 70% or less, with respect to the enzymatic activity of the fraction added with no heavy metal as 100%.
The effects of heavy metal on the enzymes of the present invention were determined by: mixing 5 μl of a reaction solution (200 mM Tris buffer (pH 8.0), 2% of NADPH, 1% of scyllo-inosose, and 2 mM of a heavy metal) with 5 μl of an enzyme solution; and allowing the mixture to react at 36° C. for 30 min. After the reaction, 500 μl of water was immediately added thereto, and the absorbance at 340 nm was measured. From the blank value of a test solution prepared by using water instead of the enzyme solution, the decrease in the absorbance at 340 nm was measured. The enzyme solution was diluted as required. CaCl2, CoCl2, ZnSO4, MgSO4, SnCl2, NiCl2, and MnSO4 were used as metallic salts. The activity of the no addition group was defined as 100%, and the relative activities were compared. […] Most of the enzymes were inhibited in the presence of Zn^2+ ion, in contrast, the enzyme derived from Bacillus subtilis 168 was activated in the presence of Zn^2+ ion.

[2] = Km values of scyllo-inositol dehydrogenase for scyllo-inosose (reciprocal plot); details: NADPH, pH 8.0, 36° C.
Experimental: The determination is carried out such that the Km value is calculated after reciprocal plot according to the general method.
After the reaction, […] of water was immediately added thereto, and the absorbance at 340 nm was measured. From the blank value of a test solution prepared by using water instead of the enzyme solution, the decrease in the absorbance at 340 nm was measured. The enzyme solution was diluted as required. The Km values were calculated by the reciprocal plot.

[3] = Optimum pH of scyllo-inositol dehydrogenase; details: 200 mM phosphate buffer (pH 5.0 to 9.0); 90% or more of the maximum activity
Experimental: The optimum pH can be confirmed by: mixing 5 μl of a reaction solution (200 mM […] of pH 5.0 to 9.0 containing 2% of NADPH, and 1% of scyllo-inosose) and 5 μl of an enzyme solution; allowing the mixture to react at 36° C. for 30 minutes; adding 500 μl of water immediately after the completion of the reaction; determining the absorbance at 340 nm; and determining a decrease in the absorbance at 340 nm with respect to a blank value of a test solution containing water instead of the enzyme solution. The term “optimum pH” means a pH at which the enzyme has 90% or more of the maximum activity. The enzyme of the present invention can be divided depending on, for example, a range of the optimum pH into groups each having: an optimum pH in an acidic region (optimum pH is pH of 5.5 to 6.5); an optimum pH in a neutral region (optimum pH is pH of 6.5 to 7.5 or 6.5 to 8.5); and an optimum pH in an alkaline region (optimum pH is pH of 7.0 to 8.5 or 7.5 to 9.0).
The optimum pH of the enzymes of the present invention was determined by: mixing 5 μl of a reaction solution (200 mM phosphate buffer (pH 5.0 to 9.0), 2% of NADPH, and 1% of scyllo-inosose) with 5 μl of an enzyme solution; and allowing the mixture to react at 36° C. for 30 min. After the reaction, 500 μl of water was immediately added thereto, and the absorbance at 340 nm was measured. From the blank value of a test solution prepared by using water instead of the enzyme solution, the decrease in the absorbance at 340 nm was measured. The enzyme solution was diluted as required.

[4] = Substrate specificity of scyllo-inositol dehydrogenase (relative activity of oxidation, absorbance at 545 nm); details: relative to reactivity to scyllo-inositol, NADP^+, pH 8.0, 25° C.
Experimental: Examples of an inositol isomer include scyllo-inositol (SI), myo-inositol (MI), D-chiro-inositol (DCI), L-chiro-inositol (LCI), epi-inositol (EI), muco-inositol (MuI), allo-inositol (AI), and neo-inositol (NI).
The inositol isomers include scyllo-inositol (SI), myo-inositol (MI), D-chiro-inositol (DCI), L-chiro-inositol (LCI), epi-inositol (EI), muco-inositol (MuI), allo-inositol (AI), and neo-inositol (NI).
The reaction rate was calculated from the absorbance increments at the respective times.

[5] = Enzyme reaction product of scyllo-inosose reduction measured by HPLC; details: for share of scyllo-inositol in the product of scyllo-inosose reduction: 10 mg scyllo-inosose, 40 mg NADPH, 10 U enzyme, 36° C., 4 hours, myo-inositol not detected; for Reduction reaction product: SIS: scyllo-inosose, SI: scyllo-inositol
Experimental: Meanwhile, the enzyme reaction product was measured as follows: 10 mg of scyllo-inosose, 40 mg of NADPH, and 10 U of the enzyme were allowed to react in 1.0 ml of 100 mM Tris buffer (pH 8.0) at 36° C. for 4 hours, and a heat treatment was performed at 80° C. for 10 min, followed by cooling. Then, 100 μl of a strong base cation exchange resin, 100 μl of a strong acid anion exchange resin, and 10 mg of activated carbon were added, and the mixture was stirred and centrifuged. Then, the supernatant was diluted 2-fold, and measurement was performed by HPLC (Shodex Asahipak NH2P-50 4E Φ 4.6×250 mm: Shodex) using an RI detector under the condition of a column temperature of 40° C. and a mobile phase flow rate of 1.5 ml (80% acetonitrile). […] Meanwhile, the sequence of the ydgJ gene is shown in SEQ ID NO: 1, and the amino acid sequence corresponding thereto is shown in SEQ ID NO: 2.
Meanwhile, enzyme reaction product was measured as follows: 10 mg of scyllo-inosose, 40 mg of NADPH, and 10 U of the enzyme were allowed to react in 1.0 ml of 100 mM Tris buffer (pH 8.0) at 36° C. for 4 hours, and a heat treatment was performed at 80° C. for 10 min, followed by cooling. Then, 100 μl of a strong base cation exchange resin, 100 μl of a strong acid anion exchange resin, and 10 mg of activated carbon were added, and the mixture was stirred and centrifuged. Then, the supernatant was diluted 2-fold, and measurement was performed by HPLC (Shodex Asahipak NH2P-50 4E Φ 4.6×250 mm: Shodex) using an RI detector under conditions of a column temperature of 40° C. and a mobile phase flow rate of 1.5 ml (80% acetonitrile).

Row | Molecule | Heavy metal effects: activation [1] | Heavy metal effects: strong inhibition [1] | Km [2] | Optimum pH [3] | Substrate specific Relative activity (20 to 70%) [4] | Substrate specific Relative activity (70% or more) [4] | Substrate specific Relative activity (less than 20%) [4] | share of scyllo-inositol in the product of scyllo-inosose reduction [5] | Reduction reaction product [5]
1 | AB10121 Atu3234 gene: recombinant scyllo-inositol dehydrogenase, Atu3234 gene product of Agrobacterium sp. AB10121 FERM P-17383, SEQ ID NO: 12 (protein, listed as Agrobacterium sp.) MAIEGKTTDKANKRIRLGMVGGGSGAFIGGVHRMAARLDNRFDLVAGALSSTPEKSLASGRELGLDPERCYGSFEEMAEKEALREDGIEAVAIVTPNHVHYPAAKAFLERGIHVICDKPLTSNLEDAKKLKDVADKADALFILTHNYTGYPMVRHARELVESGALGTIRLVQMEYPQDWLAEPIEQTGAKQAVWRTDPAQSGAGGSTGDIGTHAYNLGCFISGLEVDELAADVHTFVEGRRLDDNAHVMLRFKPKGGKQPAKGLLWCSQVAVGHENGLKVRVYGDKAGIEWTQADPNYLWFTKLGELKQLITRGGAGAGAAAARVTRIPSGHPEGYLEAFATIYTEAAHAIEARRTGSVLDKAVIYPTVDDGVKGVAFVTACIESGKKNGVWVKL | Co, Mn, Ca | Sn, Zn | 3.1 mM | pH 7.0-8.5 | MuI | SI, MI, DCI, EI, and LCI | AI, NI | 100% | Only SIS → SI
2 | SIDH1: scyllo-inositol dehydrogenase purified from Acetobacter sp. AB10281, DEAE-unadsorbed fraction, SEQ ID NO: 28 (protein, listed as Acetobacter sp.) MTKRKLRIGLIGSGFMGRTHAFGYSTASRVFDLPFQPELTCLADISDEAAAKAADALGFARSTSDWRTLVNDPEIDVVNITAPNAFHKEMALAAIAAGKHVYCEKPLAPLAADAREMAEAAEAKGVKTQVGFNYLCNPMLALARDMIAAGELGEIRGYRGLHAEDYMADASSPFTFRLDPAGGGALADIGSHALATAEFLMGPAAGAITQVMGDCVTVIKTRPDGKGGTRAVEVDDIGRALLRFENGATGSVEGNWIATGRTMQHDFEVYGTKGALAFTQQRFNELHFFSSTDARGRKGFRRIEAGPEHAPYGLFCVAPGHQLGFNDLKAIEVARYLEALAGHHPEPFNFRAGLRIQTLVETIHASSKSAAWRDVPTDKVKLQAKSRQHEKA | Co | Sn, Zn | 7.6 mM | pH 5.5-6.5 |  |  | DCI, LCI, EI,; also recorded: MuI, AI, NI |  | Only SIS → SI
3 | Xcc3438 gene: recombinant scyllo-inositol dehydrogenase, Xcc3438 gene product of Xanthomonas campestris pv. campestris ATCC33913, SEQ ID NO: 14 (protein, Xanthomonas campestris pv. campestris) MPKPFNLAVVGYGYVGRTFHAPLIASTPGLQLHSVVSSKPQQPQADFREVRVLPDLEAALADPALDAVVIATPNQTHAPMALQALAAGKHVLVDKPFALDAAQARTVVDAAAEAGKIVSVFQNRRWDADFLTVRRLIEDGQLGEVVEFHSHFDRYRPQVRDRWRESDIPGAGLWYDLGPHLLDQALQLFGMPQAISADLQRQRTQARSDDYFNVVLRYPRLRVILHAGSLVADGSLRFAVHGTRGSYLKHGADTQEDQLRAGRRPGTAGWGMDPLPGTLTRVDDEGRVHTHQPDGVPGDYRHCYAAFRDAMAGTAPPPVSAADAVRLMELLELAQRGAALGQVLWLEGNSSD | Co | Sn, Zn | 9.1 mM | pH 6.5-7.5 |  | SI, DCI | EI, LCI, MuI,; also recorded: AI, NI | 100% | Only SIS → SI
4 | AB10121 Atu4375 gene: recombinant scyllo-inositol dehydrogenase, Atu4375 gene product of Agrobacterium sp. AB10121 FERM P-17383, SEQ ID NO: 10 (protein, listed as Agrobacterium sp.) MSSAPKKFDSRRIRLGMVGGGQGAFIGAVHRIAARLDDRYELVAGALSSDPARAAASATLLGIAPERSYASFEEMAAAEAGRDDGIEAVAIVTPNHLHFAPSKAFLEAGIHVICDKPVTATLEEAKALAEIVRASDSLFVLTHNYTGYAMLRQMRQMVADGAIGKLRHVQAEYAQDWLTEAVEKTGAKGAEWRTDPSRSGAGGAIGDIGTHAFNAAAFVTGEIPKSLYADLTSFVPGRQLDDSANILLRYESGAKGMLWASQIAVGNENALSLRVYGEKGGLEWHHRVPDELWFTPYGEPKRLITRNGAGAGAAANRVSRVPSGHPEGYLEGFATIYREAADAIIAKREGKAAAGEVIYPGMEDGLAGLAFIDAAVRSSQTSTWINIDI | Co, Mn | Sn, Zn | 9.8 mM | pH 6.5-8.5 | LCI, MuI | SI, MI, DCI, EI | AI, NI | 100% | Only SIS → SI
